Assay results as given in patent publication US20160053277A1, “Compositions Having Dicamba Decarboxylase Activity and Methods of Use” (PIONEER HI-BRED INTERNATIONAL, INC., priority 2013, published 2016).

Tests used:
[1] = 14C assay with IPTG-induced recombinant E. coli cells: 14CO2 captured from [14C]-carboxyl-labeled dicamba; conditions: for Enzymatic Detection level: dicamba decarboxylation activity of the protein of the given SEQ ID NO, High / Low / No; for Dicamba Decarboxylase Activity: induced recombinant E. coli cells, [14C]-carboxyl-labeled dicamba, 14CO2 capture
[2] = Saturation mutagenesis of SEQ ID NO:109: dicamba decarboxylation activity of point mutants (carbon dioxide released); conditions: decarboxylation activity (carbon dioxide released) of point mutant compared with unmutated backbone protein; backbone SEQ ID NO: 109

| Molecule | Enzymatic Detection level [1] | Dicamba Decarboxylase Activity [1] | Fold Activity [2] |
| --- | --- | --- | --- |
| 78 (protein, listed as Marinobacter adhaerens) MALIDLHAHAPHPDYYDQHPHWGPAFELQSDGDIKLRVGHWVLSLGAPERKQALREAHARGETLDVQEYMAKWRDPEHRLASMDAAGQNAQVLSVPSHCYMYWAEPEFGVPFAKKVNDSLAEYCSAAPDRLMFWAHAPLNVPKEAAKEIRRACTELGAKGLVAGGSNFGGLEFDSPEMDPVWEALCDLDLPMFVHGYNQSVTWGEEANTDRYETTAIVGMNYDESKCFWYMINGGVFDRFPNLKVYITHGGGFVPYQLGRMAQTNPNLDTYHNKKPFLEYLKNFYFDVELHEVPMRQAMVEVIGADRVLYGSNFGGSDAVRHDLTDDLKLSQEDLDKIRWKNACDLLHLDPNKLGKVRG | Low | Low | 1.1 |
| 80 (protein, listed as Cordyceps militaris) MAAASTPVVVDIHTHMYPPSYIAMLEKRQTIPLVRTFPQADEPRLILLSSELAALDAALADPAAKLPGRPLSTHFASLAQKMHFMDTNGIRVSVISLANPWFDFLAPDEAPGIADAVNAEFSDMCAQHVGRLFFFAALPLSAPVDAVKASIERVKNLKYCRGIILGTSGLGKGLDDPHLLPVFEAVADAKLLVFLHPHYGLPNEVYGPRSEEYGHVLPLALGFPMETTIAVARMYMAGVFDHVRNLQMLLAHSGGTLPFLAGRIESCIVHDGHLVKTGKVPKDRRTIWTVLKEQIYLDAVIYSEVGLQAAIASSGADRLMFGTDHPFFPPIEEDVQGPWDSSRLNAQAVIKAVGEGSSDAAAVMGLNAVRVLSLKAE | Low | Low | 0.8 |
| 82 (protein, listed as Rhodopseudomonas palustris) MAQNETPVIAIEEHYWDPEMVARFPAGENASPFSTLLTELGDVRLRAMDEAGIDVQVLSHGAPAAQKLPPDVAPELTRRVNDRLAEACARFPNRFAAFAALPTPAPEAAARELERCVRDLGFKGAMIHGLTNGLFIDDKRFWPIFEVAEKLDVPIYLHPSVPHADVTRYYYDDYAREFPTVIRPAWGFTVETATQAIRLILSRALESYPRLQIILGHLGETLPFLLWRINQALARPGQTPLDFRKQFCDHFHVTTSGFFSTPALICTMLELGIDRIMFAVDYPYVVNRDGTDWVQQLQISPDDKRKLVGGNARRLLKL | Low | Low | 0.9 |
| 83 (protein, listed as Mycobacterium rhodesiae) MALIALEEHYAWSPVSAGNVVGSWLETHNVTAYQRLYDRGPLRLEQMDAAGIDFQILSLFDPGVQDDDDTARAVENARRANDDLAETVRAAPDRFGGFATLAPQDPDAAAAELERAVGELGLVGGLINGHTHGRYLDDPAYLGLFECAQRLGVPIYLHPTTPHPAVMDAWFAPYVKDGLHLASWGFAAETGTHALRLIYSGLFDTFPRLQMILGHLGEMLPYAAYRIDRYYGLGGGDDGGRLARLPSEYLRDNFHVTTSGNFNPVAFACALDVMGPDRLMFSVDYPMDDNVTGAEFLRNLEVDDDVRRKVAGENALQLFGDKIPRR | Low | Low | 1.9 |
| 84 (protein, listed as Mycobacterium rhodesiae) MASLIALEEHYAWDPASEGNVVATWLRANNGVAYDRLYDRGPLRIEQMDAAGIDFQILSLFDPGVQDEVDAVRAVDLARRANDDLAESVRANPSRFGGFATLATQQPDAAVAEFDRAVTELGLVGGLINGHCQGRYLDDPAYEALFSRAEALGAPIYLHPTTPHPAVMDAWFAPYVGDGLHLASWGFAAETGTHVLRLIYSGLFDKFPRLQMIIGHLGEMLPFAAYRIDRYYGLGGGGTGHTLQHLPSDYLRNNFHVTTSGNFCSPALDCTLDVMGADRVMFSVDYPMDDNQTGADFLASYPMDDTNRRKVASENALRLFGDRIPAALRN | Low | Low | 1 |
| 85 (protein, listed as Maritimibacter alkaliphilus) MAADRKPGLVSVEEGFMIPEVVAELSRIAGGVPSMKSGPIAGPFMDDLLDIGKGRVARMDADGVAVQILALAAPGVQKFDPDTALALSRLTNDRLAEAIAAHPARFGGLAAAPPQAAREGAKELDRAITTLGLNGLIVNSHTNDLYLDDPSFWPLLEAAEALDVPVYLHPREPAAGIEGGLMAMTGFTVGWAYAVETGTHLLRMIAAGVFDRFPRLRIVLGHLGEMIPFMLDRIDNRYPFEMGVTGAKPLPRKPSDYFRDHVTVATSGMNFNAPMRAAIEVLGADKVMFAADYPMERQDEEVAKFAALDLTPDERKRIGEDNARRVFGL | Low | Low | 1.4 |
| 86 (protein, listed as Sphingopyxis alaskensis) MALGASVASREASAQMAKAPMRKIATEEAFATPELAKAWLEIARSEPNSSLDIPTGILSIFDNPRPGSNQDRFRRQLLDVDAERIRDMDEAGVDMQLLSVTIPGVQIFEPARAGELAVTTNDHLAAAIARRPTRFAGLACFAPHDPVQATREMERAVNALGLKGFIVNSHTQDLYLDDPRFAPVLEAAQSLDCPIYLHPRAPSNGMAAPFRDYSMGGSIWGFGVEAGTHAVRMILSGVFDRYPRLRIVLGHMGEALPFWMWRLDHMAARRAKDGRMKPLSLAPSEYFKRNFAVTTSGFESPDVLDLVIKVAGIENIMWAIDYPYESSRDAVTFIEGADLTASQRASIFHRNAVRHFRLS | Low | Low | 1.4 |
| 90 (protein, Pyrenophora tritici-repentis) MAATIDRVLYLGNATQRRYTSATVSVPRIFGKVALEEHVGTSIWAKYNLTPPANAVVGVLNRPPTLPNTLDTIARLDDINGRLSSMNHSGIGYVIVSLSSPGIQGVHDTALAIKFSTDINDELYLKYANAYPDKFAFFATVPMQDPVAAASELERAVSLLGAKGAAINGYTDIGPPGNSTTRYLDDPINAPFWSKVAALNVPIYLHPRAPPPSQQLVYNYPNNSLSAYPGLVTGGFAYGAETAVHALRLMLSGLFDTHPNIQIILGHAAEGLPFLIHRSDTQLAAEVPGTNGPYKRPLRYYLRNNFYATLSGVRRLSTTQCTLAEMGEERVLFSVDYPFQSNEDAADWFDGVEGMSVETKRKVARGNARRLFNLTVDLDERQIDGDFM | Low | Low | 1.7 |
| 6 (protein, Treponema brennaborense) MAEILSPEESIYYSKLSNDILAEGIKKNPTRFRGFAALPTPDPIQAAMELERCIKLGGFVGAIINGHINGHYLDEIQFDPILEAADALDVPLYIHPAVPPKAIIDTYYKMNDTYAQTVMVSGGWGWHIETGVHVLRLISSGVFDRHPNLKIVIGHLGEGLPFFMHRLNNAIGGNLKKSYSTYLKENIYYTISGFNDPDLFQFVLKKVGENNIMFSSDYPFNFPKREVELFNELNISEEVREKISFKNAERILKI | No | No | 0.9 |
| 91 (protein, listed as Botryotinia fuckeliana) MASFVCNFGKAALATLLLTPSISAADYTPQETVLNSGRPTFYDASTSIPGKIALEEHVGNDLLNGLYTVPYYPNTNEPQYSDSVYIADVGEKMLDIPSRIANMDAANISISVLTFGGPGIQGVFNATYATYAAGYVNDYLYKNYKNNANYTGRFEFWCSNALQEPSKAATELERCVKELGGVGSFVGGYTNNGGINGTANDIVYLDDPSMEPFLEKVVELDVPIYLHPRMPAPSQLLSVKGYEFLGSSPWGFSSETGAHALRLMVSGTLDKYPTLKIVLGHCGEGLPFFLPRIDQRLRHFKKELFNNTLTMEEYWLRNFYVTTAGVQDAGTLVDTIKRTGEDRVMFSVDYPFEDTVEIAGWFDRLEMNTLTKTKLAYENAKALLKLTCYVDAEKRPRIFNKHHVDDIIKHTHSPCIWTLFH | Low | Low | 1.6 |
| 93 (protein, listed as Mucilaginibacter paludis) MAKYGKHITINKNMRIVTLEEHISFPEMADQIPKAALGSFGRSEAMQRIAPKLADITGERLKSMDANGISMQVLSVDSSGVNLLSPQQGPAFATQYNDLIANRIAGFEKRFTAFAHLPMTAPFAAADELERAVKEHHFCGAMIRGLTGDQFLDHPQFAPIFERAQKLDVPIYLHPGLPPKGVADIYYSGLPNYSGMAEALACYGWGWHSETALHVLRLLFSGIFDQYPKLKLVIGHMGEMLPMMMARSEKAFKPGNGGANVRTLTDTFRSQVYLTTSGFFTQPPLKIALDTFGIDHVMFSVDYPFSTNEMGIEFLNEIDLPDEEVARIAHGNADKLLNLKA | Low | Low | 1.6 |
| 94 (protein, listed as Bacillus thuringiensis) MANRGDSNMKSLVGVIMGSTSDWETMKYACDILDELNIPYEKKVVSAHRTPDYMFEYAETARERGLKVIIAGAGGAAHLPGMVAAKTNLPVIGVPVQSKALNGLDSLLSIVQMPGGVPVATVAIGKAGSTNAGLLAAQILGSFHDDIHDALELRREAIEKDVREGSELV | No | No | 1.5 |
| 96 (protein, Aspergillus nidulans) MAPLIVDVHTHVYPPAYMQMLRSRKTVPYVHDPSNNRDPRLIILSSDDDASIPLDQRGRPVDSSYWDINVKLSFMRQHGINCSVISLANPWLDFVEPAEAQMWAERINDDLEKTCATVNKAADPGNTLTLDQKETLFAFGALPLSAPSSESVVAEIKRLKTLEHLRGVIMGTSGLGKGLDDARLDPVWEALQETDMLMFLHPHYGLPEEAYGGPETTGRYGHVLPLALGFPLETTIAVTRMLLSGVFDRFPRLKILLAHSGGTLPFLAGRIESCILHERKFISGGGDVQGPQRSVWDVLKTNIYLDAVVYGKPGLEAAMTASGSDRLLFGTDHPFFPPLDSKDNSWPSVTTNYQAIHATFDTNSKTVADVLGGNAARILNLK | No | No | 1.1 |
| 97 (protein, listed as Sphingobium sp.) MAMMIIDCHGHYTVLPKAHDEWREQQKAAFKAGQPAPPYPEISDDEIRETIEANQLRLIKERGADMTIFSPRASAMAPHVGDQSVAVPWAQACNNLIARVVDLFPETFAGVCMLPQSPEADMTSSIAELERCVNELGFIGCNLNPDPGGGHFKHPPLTDRFWYPFYEKMVELDVPAMIHVSGSCNPAMHATGAYYLAADTIAFMQLLQGNLFADFPTLRFIIPHGGGAVPYHWGRFRGLADMLKQPSLDTLLMNNVFFDTCVYHQPGINLLADVIDNKNILFGSEMVGAVRGIDPTTGHYFDDTKRYIDALDISDQERHAIFEGNTRRVFPRLDAKLKARGL | No | No | 2.9 |
